From patent US20160279215A1, “NOVEL PEPTIDES AND COMBINATION OF PEPTIDES FOR USE IN IMMUNOTHERAPY AGAINST VARIOUS TUMORS” (immatics biotechnologies GmbH, priority 2015, published 2016) come the findings set out here.

For the test, the target named is T1, HLA-A*02:01 (Homo sapiens, UniProt P04439, D140Y/D185E/D98H/E176V/E277Q/G131W/G231S/I119V/I121R/I166T/I218V/L300P/L318F/N151K/N90K/P208A/P217A/Q86G/Q94H/R138H/R169H/T345S).
T1 construct: made in house
In words: MHC binding assay: UV-ligand exchange with β2m ELISA (peptide exchange yield). The following applies: binding to HLA-A*02:01 evaluated by peptide exchange yield (UV-ligand exchange, β2m ELISA). The source says: Candidate peptides for T cell based therapies according to the present invention were further tested for their MHC binding capacity (affinity). The individual peptide-MHC complexes were produced by UV-ligand exchange, where a UV-sensitive peptide is cleaved upon UV-irradiation, and exchanged with the peptide of interest as analyzed. Only peptide candidates that can effectively bind and stabilize the peptide-receptive MHC molecules prevent dissociation of the MHC complexes. To determine the yield of the exchange reaction, an ELISA was performed based on the detection of the light chain (β2m) of stabilized MHC complexes. The assay was performed as generally described in Rodenko et al. (Rodenko et al., 2006).
96 well MAXISorp plates (NUNC) were coated over night with 2 ug/ml streptavidin in PBS at room temperature, washed 4× and blocked for 1 h at 37° C. in 2% BSA containing blocking buffer. Refolded HLA-A*02:01/MLA-001 monomers served as standards, covering the range of 15-500 ng/ml. Peptide-MHC monomers of the UV-exchange reaction were diluted 100 fold in blocking buffer. Samples were incubated for 1 h at 37° C., washed four times, incubated with 2 ug/ml HRP conjugated anti-β2m for 1 h at 37° C., washed again and detected with TMB solution that is stopped with […]. Absorption was measured at 450 nm. Candidate peptides that show a high exchange yield (preferably higher than 50%, most preferred higher than 75%) are generally preferred for a generation and production of antibodies or fragments thereof, and/or T cell receptors or fragments thereof, as they show sufficient avidity to the MHC molecules and prevent dissociation of the MHC complexes.
A general note: An ELISA detects its analyte on a solid surface through an enzyme-linked reagent.
As for “184 (ALDSTIAHL; listed as Homo sapiens) [compound 184]”, the Peptide exchange result is on record as “++ (≧20% = ++)”.

For “273 (SLNKQIETV; listed as Homo sapiens) [compound 273]”, the Peptide exchange result is listed as “++ (≧20% = ++)”.

In the case of “177 (ALINVLNAL; listed as Homo sapiens) [compound 177]”, the Peptide exchange entry was “+++ (≧50 = +++)”.

For the substance “37 (QIVELIEKI; listed as Homo sapiens) [compound 37]”, the Peptide exchange entry is “++ (≧20% = ++)”.

For “36 (TVLQELINV; listed as Homo sapiens) [compound 36]”, the Peptide exchange result is given as “+++ (≧50 = +++)”.

In the case of “228 (SLLELDGINLRL; listed as Homo sapiens) [compound 228]”, the Peptide exchange result was “+++ (≧50 = +++)”.

With “33 (TLDRNSLYV; listed as Homo sapiens) [compound 33]”, the Peptide exchange result is “++ (≧20% = ++)”.

On to “115 (ILHGEVNKV; listed as Homo sapiens) [compound 115]”, for which the Peptide exchange result is “++ (≧20% = ++)”.

“51 (LDSEALLTL; listed as Homo sapiens) [compound 51]”: the Peptide exchange result is on record as “++ (≧20% = ++)”.

In the case of “128 (SILTNISEV; listed as Homo sapiens) [compound 128]”, the Peptide exchange result is listed as “++ (≧20% = ++)”.

For the substance “271 (VLIEYNFSI; listed as Homo sapiens) [compound 271]”, the Peptide exchange entry is recorded as “+++ (≧50 = +++)”.

On to “84 (FLLEREQLL; listed as Homo sapiens) [compound 84]”, for which the Peptide exchange result is reported as “++++ (≧75% = ++++)”.

On to “21 (YLMDDFSSL; listed as Homo sapiens) [compound 21]”, for which the Peptide exchange result is listed as “+++ (≧50 = +++)”.

With “114 (LLFPSDVQTL; listed as Homo sapiens) [compound 114]”, the Peptide exchange result is listed as “++ (≧20% = ++)”.

Consider “167 (LVVDEGSLVSV; listed as Homo sapiens) [compound 167]”, for which the Peptide exchange entry was “+++ (≧50 = +++)”.

With “154 (AIIKEIQTV; listed as Homo sapiens) [compound 154]”, the Peptide exchange result is “++ (≧20% = ++)”.

“151 (DISKRIQSL; listed as Homo sapiens) [compound 151]”: the Peptide exchange entry was “++ (≧20% = ++)”.

For the substance “53 (AQHLSTLLL; listed as Homo sapiens) [compound 53]”, the Peptide exchange result is “+ (≧10% = +)”.

Take “23 (ALLSPLSLA; listed as Homo sapiens) [compound 23]”: the Peptide exchange entry is “+++ (≧50 = +++)”.

On to “116 (ALLSSVAEA; listed as Homo sapiens) [compound 116]”, for which the Peptide exchange result was “++ (≧20% = ++)”.

In the case of “187 (SILKEDPFL; listed as Homo sapiens) [compound 187]”, the Peptide exchange result is “++ (≧20% = ++)”.

Consider “279 (VLMDEGAVLTL; listed as Homo sapiens) [compound 279]”, for which the Peptide exchange result was “++ (≧20% = ++)”.

For “247 (NLLIDDKGTIKL; listed as Homo sapiens) [compound 247]”, the Peptide exchange entry is given as “++ (≧20% = ++)”.

Consider “105 (AMLASQTEA; listed as Homo sapiens) [compound 105]”, for which the Peptide exchange result was “++ (≧20% = ++)”.

As for “138 (GIINKLVTV; listed as Homo sapiens) [compound 138]”, the Peptide exchange result is given as “++ (≧20% = ++)”.

Take “6 (FLNAIETAL; listed as Homo sapiens) [compound 6]”: the Peptide exchange result is listed as “++++ (≧75% = ++++)”.

Regarding “164 (MLIIRVPSV; listed as Homo sapiens) [compound 164]”, the Peptide exchange entry was “+++ (≧50 = +++)”.

For the substance “26 (VLDGKVAVV; listed as Homo sapiens) [compound 26]”, the Peptide exchange result is “+++ (≧50 = +++)”.

As to “58 (HLLGEGAFAQV; listed as Homo sapiens) [compound 58]”, the Peptide exchange result is recorded as “+++ (≧50 = +++)”.

Take “136 (LLWDAPAKC; listed as Homo sapiens) [compound 136]”: the Peptide exchange result is “+++ (≧50 = +++)”.

Consider “238 (HLQEKLQSL; listed as Homo sapiens) [compound 238]”, for which the Peptide exchange result is given as “++ (≧20% = ++)”.

For “208 (HLNNDRNPL; listed as Homo sapiens) [compound 208]”, the Peptide exchange result is “++ (≧20% = ++)”.

As to “191 (AAIEIFEKV; listed as Homo sapiens) [compound 191]”, the Peptide exchange result is reported as “+++ (≧50 = +++)”.

As for “179 (TLGEIIKGV; listed as Homo sapiens) [compound 179]”, the Peptide exchange result is reported as “+++ (≧50 = +++)”.

Take “49 (KLIGNIHGNEV; listed as Homo sapiens) [compound 49]”: the Peptide exchange result is listed as “++ (≧20% = ++)”.

Take “72 (VLSTRVTNV; listed as Homo sapiens) [compound 72]”: the Peptide exchange result was “++ (≧20% = ++)”.

Consider “163 (GLEERLYTA; listed as Homo sapiens) [compound 163]”, for which the Peptide exchange result is given as “++ (≧20% = ++)”.

Regarding “153 (KLVELEHTL; listed as Homo sapiens) [compound 153]”, the Peptide exchange entry is recorded as “+++ (≧50 = +++)”.

Consider “226 (SLAGNLQEL; listed as Homo sapiens) [compound 226]”, for which the Peptide exchange entry is on record as “+++ (≧50 = +++)”.

Regarding “241 (KQFEGTVEI; listed as Homo sapiens) [compound 241]”, the Peptide exchange entry was “+++ (≧50 = +++)”.

As for “126 (QLREAFEQL; listed as Homo sapiens) [compound 126]”, the Peptide exchange entry is reported as “+++ (≧50 = +++)”.

Consider “266 (FLLDKPQDL; listed as Homo sapiens) [compound 266]”, for which the Peptide exchange result is recorded as “++ (≧20% = ++)”.

For the substance “40 (KIWEELSVLEV; listed as Homo sapiens) [compound 40]”, the Peptide exchange entry was “+++ (≧50 = +++)”.

Take “55 (HLFDKIIKI; listed as Homo sapiens) [compound 55]”: the Peptide exchange result is “+++ (≧50 = +++)”.

Consider “85 (KLLDKPEQFL; listed as Homo sapiens) [compound 85]”, for which the Peptide exchange entry was “++ (≧20% = ++)”.

Turning to “256 (FLNDIFERI; listed as Homo sapiens) [compound 256]”, the Peptide exchange entry is given as “+++ (≧50 = +++)”.

“147 (GLLSALENV; listed as Homo sapiens) [compound 147]”: the Peptide exchange result is given as “+++ (≧50 = +++)”.

Regarding “276 (RMPTVLQCV; listed as Homo sapiens) [compound 276]”, the Peptide exchange result was “+++ (≧50 = +++)”.

For the substance “150 (VLLDMVHSL; listed as Homo sapiens) [compound 150]”, the Peptide exchange entry is “+++ (≧50 = +++)”.

Turning to “195 (VIIQNLPAL; listed as Homo sapiens) [compound 195]”, the Peptide exchange entry is “+++ (≧50 = +++)”.

On to “218 (SLTGANITV; listed as Homo sapiens) [compound 218]”, for which the Peptide exchange entry is “+++ (≧50 = +++)”.

On to “192 (TLLPSSGLVTL; listed as Homo sapiens) [compound 192]”, for which the Peptide exchange result was “++ (≧20% = ++)”.

As for “45 (FLPVSVVYV; listed as Homo sapiens) [compound 45]”, the Peptide exchange entry is on record as “+++ (≧50 = +++)”.

For the substance “87 (KLLSLLEEA; listed as Homo sapiens) [compound 87]”, the Peptide exchange entry is “+++ (≧50 = +++)”.

As for “42 (KQMSISTGL; listed as Homo sapiens) [compound 42]”, the Peptide exchange entry is recorded as “++ (≧20% = ++)”.

“269 (GLLDCPIFL; listed as Homo sapiens) [compound 269]”: the Peptide exchange result is “++++ (≧75% = ++++)”.

With “63 (KLLPMVIQL; listed as Homo sapiens) [compound 63]”, the Peptide exchange result was “+++ (≧50 = +++)”.

With “278 (VLEDKVLSV; listed as Homo sapiens) [compound 278]”, the Peptide exchange result was “+++ (≧50 = +++)”.

As for “60 (YLFSQGLQGL; listed as Homo sapiens) [compound 60]”, the Peptide exchange result is given as “+++ (≧50 = +++)”.

Turning to “142 (LLDAAHASI; listed as Homo sapiens) [compound 142]”, the Peptide exchange result is listed as “++ (≧20% = ++)”.

“286 (FLTEMVHFI; listed as Homo sapiens) [compound 286]”: the Peptide exchange result is reported as “+++ (≧50 = +++)”.

As for “64 (SLYAGSNNQV; listed as Homo sapiens) [compound 64]”, the Peptide exchange result is on record as “++ (≧20% = ++)”.

In the case of “200 (IMPTFDLTKV; listed as Homo sapiens) [compound 200]”, the Peptide exchange result was “+++ (≧50 = +++)”.

As for “237 (ALLEQTGDMSL; listed as Homo sapiens) [compound 237]”, the Peptide exchange entry was “+++ (≧50 = +++)”.

Turning to “188 (VLGEEQEGV; listed as Homo sapiens) [compound 188]”, the Peptide exchange result is “++ (≧20% = ++)”.

Turning to “270 (TLLTFFHEL; listed as Homo sapiens) [compound 270]”, the Peptide exchange result was “+++ (≧50 = +++)”.
